Assay results taken from patent US20150203583A1.

Molecular target: Fc receptor on monocytes of human PBMC effector cells (human)
Assay: cell-based or functional assay

For “DAC HYP (daclizumab, humanized IgG1 anti-CD25 monoclonal antibody made by the high yield process in NS0 cells)”, the maximal ADCC activity on KIT225/K6 cells, against ZENAPAX DAC and DAC Penzberg was 30 to 40 % lower.
